Test results reported in paper PMC7305236.

Experiments:
[1] = biological target: ACKR3 C-terminally tagged with SmBiT (human) (UniProt P25106)
[2] = biological target: delta opioid receptor (DOR) C-terminally tagged with SmBiT (UniProt P41143)
[3] = biological target: kappa opioid receptor (KOR) C-terminally tagged with SmBiT (UniProt P41145)
[4] = biological target: mu opioid receptor (MOR) C-terminally tagged with SmBiT (UniProt P35372)
[5] = biological target: ACKR3 C-terminally tagged with SmBiT (human) (UniProt P25106); remark: listed apart in the source
[6] = biological target: atypical chemokine receptor ACKR3 (formerly CXCR7) (human) (UniProt P25106)
Sequence of atypical chemokine receptor ACKR3 (formerly CXCR7) (human) (P25106 whole entry): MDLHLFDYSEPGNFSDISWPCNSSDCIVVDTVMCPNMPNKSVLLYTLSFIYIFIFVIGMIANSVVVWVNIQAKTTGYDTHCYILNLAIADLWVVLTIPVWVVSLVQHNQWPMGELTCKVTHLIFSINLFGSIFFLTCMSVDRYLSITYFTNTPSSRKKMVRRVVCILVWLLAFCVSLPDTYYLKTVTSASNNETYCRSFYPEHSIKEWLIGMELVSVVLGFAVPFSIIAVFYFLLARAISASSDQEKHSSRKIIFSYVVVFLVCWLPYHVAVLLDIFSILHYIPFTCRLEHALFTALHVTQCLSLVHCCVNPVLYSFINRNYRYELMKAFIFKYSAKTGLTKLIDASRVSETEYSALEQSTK

mouse ACKR3 (mouse) = mouse ACKR3 (mouse) (UniProt P56485)
Sequence of mouse ACKR3 (mouse) (P56485 whole entry): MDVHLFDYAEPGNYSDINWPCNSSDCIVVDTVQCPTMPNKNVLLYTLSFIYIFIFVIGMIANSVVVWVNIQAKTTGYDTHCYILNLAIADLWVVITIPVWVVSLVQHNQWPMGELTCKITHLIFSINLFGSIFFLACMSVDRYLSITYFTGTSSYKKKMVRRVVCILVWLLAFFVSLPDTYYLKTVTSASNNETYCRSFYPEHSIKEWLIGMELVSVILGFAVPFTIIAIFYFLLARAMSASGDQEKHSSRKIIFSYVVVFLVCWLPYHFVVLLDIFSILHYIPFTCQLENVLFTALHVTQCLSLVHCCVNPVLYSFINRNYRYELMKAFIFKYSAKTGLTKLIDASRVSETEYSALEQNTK

Sequence of ACKR3 C-terminally tagged with SmBiT (human) (P25106 whole entry): as the sequence (P25106 whole entry) above
Sequence of CXCL12 (P48061 22-93): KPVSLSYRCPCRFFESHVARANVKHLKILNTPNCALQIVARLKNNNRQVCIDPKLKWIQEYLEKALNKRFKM
Sequence of mCXCL12 (P40224 22-93): as the sequence (P48061 22-93) above, with V18I, F70L counted along it

Adrenorphin (peptide)
β-arrestin-1 recruitment (NanoBiT, U87 cells): EC50 [1]: 56.5 nM | β-arrestin-1 recruitment (NanoBiT, U87 cells): EC50 [2]: 157 nM | β-arrestin-1 recruitment (NanoBiT, U87 cells): EC50 [3]: 43.5 nM | β-arrestin-1 recruitment (NanoBiT, U87 cells): EC50 [4]: 41.6 nM

Big Dynorphin (peptide)
β-arrestin-1 recruitment (NanoBiT, U87 cells): EC50 [1]: 108 nM | β-arrestin-1 recruitment (NanoBiT, U87 cells): EC50 [2]: 529 nM | β-arrestin-1 recruitment (NanoBiT, U87 cells): EC50 [3]: 19.1 nM | β-arrestin-1 recruitment (NanoBiT, U87 cells): EC50 [4]: 652 nM

CXCL12 (from UniProt P48061 22-93) (ligand)
β-arrestin recruitment to ACKR3 (Fig. 4b): EC50 [5]: 1.2 nM

Dynorphin A 1–13 (peptide)
β-arrestin-1 recruitment (NanoBiT, U87 cells): EC50 [1]: 61.9 nM | β-arrestin-1 recruitment (NanoBiT, U87 cells): EC50 [2]: 319 nM | β-arrestin-1 recruitment (NanoBiT, U87 cells): EC50 [3]: 2.5 nM | β-arrestin-1 recruitment (NanoBiT, U87 cells): EC50 [4]: 2000 nM

Dynorphin A 2–13 (peptide)
β-arrestin-1 recruitment (NanoBiT, U87 cells): EC50 [1]: 6000 nM

Dynorphin A 2–17 (peptide)
β-arrestin-1 recruitment (NanoBiT, U87 cells): EC50 [1]: 2000 nM

Dynorphin A (peptide)
β-arrestin-1 recruitment (NanoBiT, U87 cells): EC50 [1]: 110 nM | β-arrestin-1 recruitment (NanoBiT, U87 cells): EC50 [2]: 240 nM | β-arrestin-1 recruitment (NanoBiT, U87 cells): EC50 [4]: 1500 nM

Dynorphin B (peptide)
β-arrestin-1 recruitment (NanoBiT, U87 cells): EC50 [1]: 727 nM | β-arrestin-1 recruitment (NanoBiT, U87 cells): EC50 [2]: 158 nM | β-arrestin-1 recruitment (NanoBiT, U87 cells): EC50 [3]: 10.9 nM | β-arrestin-1 recruitment (NanoBiT, U87 cells): EC50 [4]: 2000 nM

Endomorphin-2 (peptide)
β-arrestin-1 recruitment (NanoBiT, U87 cells): EC50 [4]: 231 nM

Leumorphin (peptide)
β-arrestin-1 recruitment (NanoBiT, U87 cells): EC50 [1]: 1320 nM | β-arrestin-1 recruitment (NanoBiT, U87 cells): EC50 [2]: 3000 nM | β-arrestin-1 recruitment (NanoBiT, U87 cells): EC50 [3]: 21.4 nM

Nociceptin 1–13 (peptide)
β-arrestin-1 recruitment (NanoBiT, U87 cells): EC50 [1]: 10000 nM

[Phe1Ψ(CH2-NH)-gly2]nociceptin-(1–13)-NH2 (peptide)
β-arrestin-1 recruitment (NanoBiT, U87 cells): EC50 [1]: 2970 nM

adrenorphin-derived peptide yggfmrrv (Daa)
Supplementary Table 4: EC50 of β-arrestin-1 recruitment to ACKR3, U87 cells [6]: > 10000 nM

mCXCL12 (from UniProt P40224 22-93) (ligand)
Supplementary Table 6: EC50 of β-arrestin-1 recruitment to mACKR3, U87 cells (mouse ACKR3 (mouse)): 3.32 nM

β-endorphin (peptide)
β-arrestin-1 recruitment (NanoBiT, U87 cells): EC50 [2]: 441 nM
